Earlier results as cited in PMC6903724.

Biological target: IL-18 (Homo sapiens) (UniProt Q14116)
Sequence (Q14116 37-193): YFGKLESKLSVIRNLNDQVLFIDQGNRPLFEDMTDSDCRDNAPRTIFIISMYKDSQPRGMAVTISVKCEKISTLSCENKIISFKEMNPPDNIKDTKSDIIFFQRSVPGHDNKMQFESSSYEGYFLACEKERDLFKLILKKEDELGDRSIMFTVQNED

Chain of IL-18BP (O95998 31-194): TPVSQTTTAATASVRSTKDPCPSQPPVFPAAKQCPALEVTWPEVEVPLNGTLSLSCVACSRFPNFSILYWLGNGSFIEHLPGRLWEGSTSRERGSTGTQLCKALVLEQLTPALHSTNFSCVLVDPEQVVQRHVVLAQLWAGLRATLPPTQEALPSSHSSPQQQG

**Q.** Which Kd does the source give for IL-18BP (from UniProt O95998) here?
**A.** Its Kd is 400 pM.
